Results on three molecules are retold here after PMC6625990 (2019).

Sequences and labels used below:
T1: bovine Ric8A1–492 (bovine, UniProt Q5E9J8 1-492)
T1 chain: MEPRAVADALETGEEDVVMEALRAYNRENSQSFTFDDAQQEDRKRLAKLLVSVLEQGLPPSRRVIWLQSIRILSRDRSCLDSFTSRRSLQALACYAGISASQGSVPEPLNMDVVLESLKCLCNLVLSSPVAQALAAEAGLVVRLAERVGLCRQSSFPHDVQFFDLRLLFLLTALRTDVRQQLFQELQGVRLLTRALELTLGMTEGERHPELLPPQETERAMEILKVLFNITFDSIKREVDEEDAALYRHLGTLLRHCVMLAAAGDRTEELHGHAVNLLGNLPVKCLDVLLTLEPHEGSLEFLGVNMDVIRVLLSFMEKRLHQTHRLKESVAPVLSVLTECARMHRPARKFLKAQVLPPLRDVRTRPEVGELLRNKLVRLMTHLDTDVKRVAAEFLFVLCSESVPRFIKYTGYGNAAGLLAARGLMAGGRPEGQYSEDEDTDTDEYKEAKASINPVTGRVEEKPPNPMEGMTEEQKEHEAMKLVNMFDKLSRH

No end group written: not given here. *: point of attachment. Biotin = O=C1N[C@H]2[C@H](CS[C@H]2CCCCC(=O)*)N1

The experiment deals with T1, bovine Ric8A1–492. Nature of the experiment: BLI. For orientation: Biolayer interferometry detects binding as a change in optical thickness at a sensor tip.
As usually defined, the Kd is the free concentration of one partner at which half of the binding sites on the other are occupied at equilibrium, for simple one-to-one binding. The molecule Biotin-NDCRDIIQRMHLRQYELL [Gαs363–380] registered a Kd of 4.4 µM.

Molecule Biotin-NDCRDIIIRMNLRQCGLF (cysteine pairing not given here) [peptide C2] registered a Kd of 0.063 µM.

As for Biotin-NDCRDIIQRMHLRQCGLF (cysteine pairing not given here) [peptide C1], binding was characterised by a dissociation constant (Kd) of 4.7 µM. This Kd is about 75-fold higher than that of the molecule before.
